Measured values reported in article PMC13464484, “Ancestral proteins trace the emergence of substrate specificity and oligomerization within bacterial DEDDy dinucleases” (Science Advances, 2026).

Assays:
[1] = biological target: Alphaproteobacterial NrnC ortholog from Sphingomonas (Sphingomonas (genus only)); test: mass photometry; protein at 100 nM in phosphate-buffered saline, TwoMP instrument
[2] = biological target: NrnC ortholog from Methylobacter (Methylobacter (genus only)); test: SEC-MALS; purified protein at 1 to 2 mg/ml (~40 to 80 uM) on Superdex 200 Increase 10/300 GL in gel-filtration buffer (25 mM Hepes-NaOH, 150 mM NaCl, pH 7.5; 500 mM NaCl for ancestor A0), room temperature
[3] = biological target: NrnC ortholog from Thermosynechococcus (Thermosynechococcus (genus only)); test: as above
[4] = biological target: diDNase ortholog from Actinomadura (Actinomadura (genus only)); test: as above
[5] = biological target: diDNase ortholog from Mycobacterium (Mycobacterium (genus only)); test: […] (~40 to 80 uM) […], pH 7.5; […], room temperature
[6] = biological target: diDNase ortholog from Nocardia (Nocardia (genus only)); test: SEC-MALS; purified protein at 1 to 2 mg/ml (~40 to 80 uM) on Superdex 200 Increase 10/300 GL in gel-filtration buffer (25 mM Hepes-NaOH, 150 mM NaCl, pH 7.5; 500 mM NaCl for ancestor A0), room temperature
[7] = biological target: the molecule itself; test: mass photometry; protein at 100 nM in phosphate-buffered saline, TwoMP instrument

Q: For “Alphaproteobacterial NrnC ortholog from Sphingomonas (enzyme)”, which percent dimers [1] is on record?
A: > 85%

Q: What about the stoichiometry N [1] of the same molecule?
A: 2

Q: For “NrnC ortholog from Methylobacter (enzyme)”, which stoichiometry N [2] is on record?
A: 8

Q: How did the stoichiometry N [3] turn out when “NrnC ortholog from Thermosynechococcus (enzyme)” was run?
A: 8

Q: With “diDNase ortholog from Actinomadura (enzyme)” as the molecule, how does the stoichiometry N [4] read?
A: 2

Q: How did the stoichiometry N [5] turn out when “diDNase ortholog from Mycobacterium (enzyme)” was run?
A: 2

Q: Which stoichiometry N [6] does the source give for diDNase ortholog from Nocardia (enzyme) here?
A: 2

B1: Alphaproteobacterial NrnC ortholog from Caulobacter (enzyme)
chain: MANFVHEGDLPDGVFADAEIIAIDSETMGLRLRRDPLCVVQLSAGDGDAHVVRLSRPDYDCPNLKALLTNPKVLKLFHFGRFDIAMFELHLGVVTAPVYCTKIASKLARTYTDRHGLKDVTRELLGVELSKVQQSSDWGAPSLSVDQVAYAASDVLHLHGLRLKLNAMLEREGRMALAQHAFDYLPHRASLDLAGWEEMDIFAHS
Q: How did the “stoichiometry N” value [7] turn out when B1 was run?
A: 2
